From US20220144956A1 (published 2022)

What follows are binders tested against T1, human TGFßRII (antigen of the Octet experiments) (human, UniProt P37173 23-166) (assay: BLI (Octet)).
T1 sequence (P37173 23-166): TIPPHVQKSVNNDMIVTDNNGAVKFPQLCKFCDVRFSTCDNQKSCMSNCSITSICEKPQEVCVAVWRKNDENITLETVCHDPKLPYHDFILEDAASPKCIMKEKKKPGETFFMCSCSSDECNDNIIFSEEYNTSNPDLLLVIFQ

| Kd [nM] | Binder |
| --- | --- |
| 0.507 | H1.59 L1 XENP34515 (antibody, V domains shown) VH: QLQVQESGPGLVKPSETLSLTCTVSGGSISNSYFSWGWIRQPPGKGLEWIGSFYYGENTYYNPSLKSRATISIDTSKSQFSLKLSSVTAADTAVYYCPRGPTMIRGVIDSWGQGTLVTVSS VL: EIVLTQSPATLSLSPGERATLSCRASQSVRSYLAWYQQKPGQAPRLLIYDASNRATGIPARFSGSGSGTDFTLTISSLEPEDFAVYYCQQRSNWPPTFGQGTKVEIK |
| 0.713 | H1.73 L1 XENP34529 (antibody, V domains shown) VH: QLQVQESGPGLVKPSETLSLTCTVSGGSISNSYFSWGWIRQPPGKGLEWIGSFYYGEKTYYNPSLKSRATISVDTSKSQFSLKLSSVTAADTAVYYCPRGPTMIRGVIDSWGQGTLVTVSS VL: EIVLTQSPATLSLSPGERATLSCRASQSVRSYLAWYQQKPGQAPRLLIYDASNRATGIPARFSGSGSGTDFTLTISSLEPEDFAVYYCQQRSNWPPTFGQGTKVEIK |
| 0.588 | H1.71 L1 XENP34527 (antibody, V domains shown) VH: QLQVQESGPGLVKPSETLSLTCTVSGGSISNSYFSWGWIRQPPGKGLEWIGSFYYGEKTYYNPSLKSRFTISIDTSKSQFSLKLSSVTAADTAVYYCPRGPTMIRGVIDSWGQGTLVTVSS VL: EIVLTQSPATLSLSPGERATLSCRASQSVRSYLAWYQQKPGQAPRLLIYDASNRATGIPARFSGSGSGTDFTLTISSLEPEDFAVYYCQQRSNWPPTFGQGTKVEIK |
| 0.623 | H1.66 L1 XENP34522 (antibody, V domains shown) VH: QLQVQESGPGLVKPSETLSLTCTVSGGSISNSYFSWGWIRQPPGKGLEWIGSFYYGEKTYYAPSLKSRATISIDTSKSQFSLKLSSVTAADTAVYYCPRGPTMIRGVIDSWGQGTLVTVSS VL: EIVLTQSPATLSLSPGERATLSCRASQSVRSYLAWYQQKPGQAPRLLIYDASNRATGIPARFSGSGSGTDFTLTISSLEPEDFAVYYCQQRSNWPPTFGQGTKVEIK |
| 0.789 | H1.70 L1 XENP34526 (antibody, V domains shown) VH: QLQVQESGPGLVKPSETLSLTCTVSGGSISNSYFSWGWIRQPPGKGLEWIGSFYYGEKTYYNPSLKGRATISIDTSKSQFSLKLSSVTAADTAVYYCPRGPTMIRGVIDSWGQGTLVTVSS VL: EIVLTQSPATLSLSPGERATLSCRASQSVRSYLAWYQQKPGQAPRLLIYDASNRATGIPARFSGSGSGTDFTLTISSLEPEDFAVYYCQQRSNWPPTFGQGTKVEIK |
| 0.829 | H1.76 L1 XENP34532 (antibody, V domains shown) VH: QLQVQESGPGLVKPSETLSLTCTVSGGSISNSYFSWGWIRQPPGKGLEWIGSFYYGEKTYYNPSLKSRATISIDTSKSQFSLKLSSVTAEDTAVYYCPRGPTMIRGVIDSWGQGTLVTVSS VL: EIVLTQSPATLSLSPGERATLSCRASQSVRSYLAWYQQKPGQAPRLLIYDASNRATGIPARFSGSGSGTDFTLTISSLEPEDFAVYYCQQRSNWPPTFGQGTKVEIK |
| 5.28 | H1.63 L1 XENP34519 (antibody, V domains shown) VH: QLQVQESGPGLVKPSETLSLTCTVSGGSISNSYFSWGWIRQPPGKGLEWIGSFYYGEKTHYNPSLKSRATISIDTSKSQFSLKLSSVTAADTAVYYCPRGPTMIRGVIDSWGQGTLVTVSS VL: EIVLTQSPATLSLSPGERATLSCRASQSVRSYLAWYQQKPGQAPRLLIYDASNRATGIPARFSGSGSGTDFTLTISSLEPEDFAVYYCQQRSNWPPTFGQGTKVEIK |
| 1.5 | H1.68 L1 XENP34524 (antibody, V domains shown) VH: QLQVQESGPGLVKPSETLSLTCTVSGGSISNSYFSWGWIRQPPGKGLEWIGSFYYGEKTYYNPSLESRATISIDTSKSQFSLKLSSVTAADTAVYYCPRGPTMIRGVIDSWGQGTLVTVSS VL: EIVLTQSPATLSLSPGERATLSCRASQSVRSYLAWYQQKPGQAPRLLIYDASNRATGIPARFSGSGSGTDFTLTISSLEPEDFAVYYCQQRSNWPPTFGQGTKVEIK |
| 1.41 | H1.69 L1 XENP34525 (antibody, V domains shown) VH: QLQVQESGPGLVKPSETLSLTCTVSGGSISNSYFSWGWIRQPPGKGLEWIGSFYYGEKTYYNPSLQSRATISIDTSKSQFSLKLSSVTAADTAVYYCPRGPTMIRGVIDSWGQGTLVTVSS VL: EIVLTQSPATLSLSPGERATLSCRASQSVRSYLAWYQQKPGQAPRLLIYDASNRATGIPARFSGSGSGTDFTLTISSLEPEDFAVYYCQQRSNWPPTFGQGTKVEIK |
| 7.71 | H1.57 L1 XENP34513 (antibody, V domains shown) VH: QLQVQESGPGLVKPSETLSLTCTVSGGSISNSYFSWGWIRQPPGKGLEWIGSFYYGSKTYYNPSLKSRATISIDTSKSQFSLKLSSVTAADTAVYYCPRGPTMIRGVIDSWGQGTLVTVSS VL: EIVLTQSPATLSLSPGERATLSCRASQSVRSYLAWYQQKPGQAPRLLIYDASNRATGIPARFSGSGSGTDFTLTISSLEPEDFAVYYCQQRSNWPPTFGQGTKVEIK |

The next lines start with the binder.

| Binder | Kd [nM] |
| --- | --- |
| H1.44 L1 XENP34500 (antibody, V domains shown) VH: QLQVQESGPGLVKPSETLSLTCTVSGGSISNSYFSWGWIRQPPGKGLEWIGVFYYGEKTYYNPSLKSRATISIDTSKSQFSLKLSSVTAADTAVYYCPRGPTMIRGVIDSWGQGTLVTVSS VL: EIVLTQSPATLSLSPGERATLSCRASQSVRSYLAWYQQKPGQAPRLLIYDASNRATGIPARFSGSGSGTDFTLTISSLEPEDFAVYYCQQRSNWPPTFGQGTKVEIK | 2.95 |
| H1.53 L1 XENP34509 (antibody, V domains shown) VH: QLQVQESGPGLVKPSETLSLTCTVSGGSISNSYFSWGWIRQPPGKGLEWIGSFYHGEKTYYNPSLKSRATISIDTSKSQFSLKLSSVTAADTAVYYCPRGPTMIRGVIDSWGQGTLVTVSS VL: EIVLTQSPATLSLSPGERATLSCRASQSVRSYLAWYQQKPGQAPRLLIYDASNRATGIPARFSGSGSGTDFTLTISSLEPEDFAVYYCQQRSNWPPTFGQGTKVEIK | 0.366 |
| H1.49 L1 XENP34505 (antibody, V domains shown) VH: QLQVQESGPGLVKPSETLSLTCTVSGGSISNSYFSWGWIRQPPGKGLEWIGSFHYGEKTYYNPSLKSRATISIDTSKSQFSLKLSSVTAADTAVYYCPRGPTMIRGVIDSWGQGTLVTVSS VL: EIVLTQSPATLSLSPGERATLSCRASQSVRSYLAWYQQKPGQAPRLLIYDASNRATGIPARFSGSGSGTDFTLTISSLEPEDFAVYYCQQRSNWPPTFGQGTKVEIK | 0.338 |
| H1.46 L1 XENP34502 (antibody, V domains shown) VH: QLQVQESGPGLVKPSETLSLTCTVSGGSISNSYFSWGWIRQPPGKGLEWIGSIYYGEKTYYNPSLKSRATISIDTSKSQFSLKLSSVTAADTAVYYCPRGPTMIRGVIDSWGQGTLVTVSS VL: EIVLTQSPATLSLSPGERATLSCRASQSVRSYLAWYQQKPGQAPRLLIYDASNRATGIPARFSGSGSGTDFTLTISSLEPEDFAVYYCQQRSNWPPTFGQGTKVEIK | 3.2 |
| H1.39 L1 XENP34495 (antibody, V domains shown) VH: QLQVQESGPGLVKPSETLSLTCTVSGGSISNSYFSWGWIRQHPGKGLEWIGSFYYGEKTYYNPSLKSRATISIDTSKSQFSLKLSSVTAADTAVYYCPRGPTMIRGVIDSWGQGTLVTVSS VL: EIVLTQSPATLSLSPGERATLSCRASQSVRSYLAWYQQKPGQAPRLLIYDASNRATGIPARFSGSGSGTDFTLTISSLEPEDFAVYYCQQRSNWPPTFGQGTKVEIK | 0.425 |
| H1.45 L1 XENP34501 (antibody, V domains shown) VH: QLQVQESGPGLVKPSETLSLTCTVSGGSISNSYFSWGWIRQPPGKGLEWIGYFYYGEKTYYNPSLKSRATISIDTSKSQFSLKLSSVTAADTAVYYCPRGPTMIRGVIDSWGQGTLVTVSS VL: EIVLTQSPATLSLSPGERATLSCRASQSVRSYLAWYQQKPGQAPRLLIYDASNRATGIPARFSGSGSGTDFTLTISSLEPEDFAVYYCQQRSNWPPTFGQGTKVEIK | 1.01 |

Biological target: T1, human TGFßRII (antigen of the Octet …)
Test: BLI (Octet)
Remark: another data set of the same source

| Binder | Kd [nM] |
| --- | --- |
| H1 L1.20 XENP34583 (antibody, V domains shown) VH: QLQVQESGPGLVKPSETLSLTCTVSGGSISNSYFSWGWIRQPPGKGLEWIGSFYYGEKTYYNPSLKSRATISIDTSKSQFSLKLSSVTAADTAVYYCPRGPTMIRGVIDSWGQGTLVTVSS VL: EIVLTQSPATLSLSPGERATLSCRASQSVRSYLAWYQQKPGQAPRLLIYEASNRATGIPARFSGSGSGTDFTLTISSLEPEDFAVYYCQQRSNWPPTFGQGTKVEIK | 2.24 |
| H1 L1.37 XENP34600 (antibody, V domains shown) VH: QLQVQESGPGLVKPSETLSLTCTVSGGSISNSYFSWGWIRQPPGKGLEWIGSFYYGEKTYYNPSLKSRATISIDTSKSQFSLKLSSVTAADTAVYYCPRGPTMIRGVIDSWGQGTLVTVSS VL: EIVLTQSPATLSLSPGERATLSCRASQSVRSYLAWYQQKPGQAPRLLIYDASNRATGIPARFSGSGSGTDFTLTISSLEPEDFAVYYCQQKSNWPPTFGQGTKVEIK | 2.87 |
| H1 L1.30 XENP34593 (antibody, V domains shown) VH: QLQVQESGPGLVKPSETLSLTCTVSGGSISNSYFSWGWIRQPPGKGLEWIGSFYYGEKTYYNPSLKSRATISIDTSKSQFSLKLSSVTAADTAVYYCPRGPTMIRGVIDSWGQGTLVTVSS VL: EIVLTQSPATLSLSPGERATLSCRASQSVRSYLAWYQQKPGQAPRLLIYDASNRATGIPARFSGSGSGTEFTLTISSLEPEDFAVYYCQQRSNWPPTFGQGTKVEIK | 0.668 |
| H1 L1.43 XENP34606 (antibody, V domains shown) VH: QLQVQESGPGLVKPSETLSLTCTVSGGSISNSYFSWGWIRQPPGKGLEWIGSFYYGEKTYYNPSLKSRATISIDTSKSQFSLKLSSVTAADTAVYYCPRGPTMIRGVIDSWGQGTLVTVSS VL: EIVLTQSPATLSLSPGERATLSCRASQSVRSYLAWYQQKPGQAPRLLIYDASNRATGIPARFSGSGSGTDFTLTISSLEPEDFAVYYCQQRNNWPPTFGQGTKVEIK | 1.08 |
| H1 L1.24 XENP34587 (antibody, V domains shown) VH: QLQVQESGPGLVKPSETLSLTCTVSGGSISNSYFSWGWIRQPPGKGLEWIGSFYYGEKTYYNPSLKSRATISIDTSKSQFSLKLSSVTAADTAVYYCPRGPTMIRGVIDSWGQGTLVTVSS VL: not shown | 0.644 |
| H1 L1.34 XENP34597 (antibody, V domains shown) VH: QLQVQESGPGLVKPSETLSLTCTVSGGSISNSYFSWGWIRQPPGKGLEWIGSFYYGEKTYYNPSLKSRATISIDTSKSQFSLKLSSVTAADTAVYYCPRGPTMIRGVIDSWGQGTLVTVSS VL: EIVLTQSPATLSLSPGERATLSCRASQSVRSYLAWYQQKPGQAPRLLIYDASNRATGIPARFSGSGSGTDFTLTISSLQSEDFAVYYCQQRSNWPPTFGQGTKVEIK | 1.61 |
